Experimental findings from the DeepSol protein solubility set are described below.

A short description of the data set: soluble on expression in E. coli; label from the status in PepcDB or PDB records.
Consider “MLRTYTVLLLIAHAHVQSHFYYPCSARIFWKIHALINNTDGFVTREVKLGYFIGYKEHRSSAERKANAHGFHGFFFSEITHTFSEMIESLEHANTGAFDDIRTDSETHFFDLDDAERMIERDSIERTNNLLENSRKFKNVRDETHRGKTRRGETHRGETHRGETHRDETHRGETHRDETHRGETHRGETHRGETHRGETHLDETHRGETHRGDTHRGETHRGETHRDDTFRGETLRGETHLDETHRGETHRDETHRGETHRDETHRDETHRDETHRGETHRGETHRGETHRDDTFRGETFRGETHRDETHRGETHRDETHRGETHRGETHRGETHRGETHRGETHRGETHRGETHRGETHRDETFRGETHRGETHRGETHRDDTHRGETHRGETHRGETHRGETHRGETHRGETHRGETHRGETHRGETHRGETHRGETHCDDTHRGETRRAETHRGETHRGETHRDETHRDDTHRGETHRGETHRGETHRGETHRGETHRDETHRGETHRGDTHRGETHRGETHRGETHRGETHRGETHRGETHRGETHRGETHRGETHRDDTHRGETRRAETHRGETHRGETHRDETHRGETHRGETHRGETHRGETHRGETHRDETHRDDTFRGETLRGETHRDETHRGETHRDDTFRGETLRGETHRDETHRGETHRDETHRGETHRGETHRGETHRGETHRGETHRGETHRGETLRGETRCDDTQRGETRRAETHRGETLRGETHRDESHRGETHRGETHRGETHRGETHRGETHRDETHRDDTFRGETLRGETHRDETHRGETHRDDTFRGETLRGETHLDETHRGETHRDETHRGETHRGETHRGETHRDETHRGETHRGETHRGETHRGETHRAETFRGETHRAETHRGETNRGETHRGETHRGETHRGETNRGETHRGETHRGETHRGDTHRAETHRDETHRGETNRDETHRGETHRGETHRGDTNRGETHRGETFRGETHRGETHRGETHRGETHRGETHRGETHRGETHRGETHRDDTFRGETHRGETHCGETHRGETHRGETLRGETLRGETHRDETHRGETLRDETHRGETLRGETHRGETLRGETHRGETHRDDTFRGETLRGETHLDETHRGETHRDETHRGETHRGETHRGETHRGETHRGETHRGETHRGETHRDETHRDDTFRGETLRGETLRDETHRGETHRDDTFRGETHRDETHRGETLRGETHRDETHRDETHRDDTHRGETLRGETHLDETHRGETHRDETHRGETHLDETHRGETHRDETHRGETHRDETHRGETHRGETHVWKARENSGMF”, for which the “soluble on expression in E. coli” value is “not soluble”.

Turning to “MSLEKYNAEVERDPFANRVFEQEEKRELTSEQRIAYENIKEKINNSEQRTFLLHGVTGSGKTEVYLQTIEEVLNKGKEAMMLVPEIALTPQMVLRFKRRFGDDVAVLHSGLSNGERYDEWQKIRDGRARVSVGARSSIFAPFKNLGIIIIDEEHESTYKQEDYPRYHARDIAEWRSQFHQCPLVLGSATPSLESYARTEKGVYQLLTLPTRVNQQALPSIDIVDMREELSAGNRSMFSNELREAIEDRLRKNEQIVLFLNRRGYASFMLCRDCGYVPQCPHCDISLTYHKSTDQLKCHYCGYHEVPPNKCPNCESSHIRQVGTGTQRVEEILQQEFEEARIIRMDVDTTSRKGAHEKLLNEFEEGKGDILLGTQMIAKGLDYPNITLVGVLNADTMLNLPDFRASERTYQLLTQVAGRAGRHDKPGRVIIQTYNPEHYAIQDVQKNDYLTFYQKEMEYRKIGKYPPYYFLINFTISHKNMKKVMEASKHIHQILLQHLTDRALVLGPSPAAIARINNEHRFQILVKYKSEPELLKALQYLDDYYHEAYLKNKLALKIDINPQILMEGHHHHHH”, the “soluble on expression in E. coli” value was “soluble”. With “ARKLFVLDTNVLLHDPSSLFRFEEHDIFLPMMTLEELDHQKKGMSEVARNARQVSRSLDSLVQDADNLDDGLALNALGNKDATGRLMFQTTAIHSTLPSDLPMGKADNQILGVVRALQERHPQREVVLVSKDINMRLKARALGMAAEDYYNDHVLEDTDLMYS”, the “soluble on expression in E. coli” value is listed as “not soluble”. For the sequence “MAIPFFEEEHAPKSEPSGDQVDSPMAFSIDPGHDQVDFEGPPSAAEELPPPGATSEPVAPPSAEEQLLAWKFLAITMCKVLKQFYQQHKSSGKSSKLKATVQIQPQAQ”, the “soluble on expression in E. coli” value is “not soluble”. Regarding “MGSDKIHHHHHHMFLNLIATAGNDRIRDFLVNDWYRSLKENVDLSKTDVLVINYGLTGLPKEVINFPAVERSGLINNTRFINLAIFLENHPEYDQILFCDGGDIIFQSDISHLFEEHRDAFRAVVEQLSPPIDLVVKEEDLVNGKEIKSFLSNKKLFNVGVIIAPREGFLELARTMERRLKNINVWGGDTVIGNYVIYKNPHVELPSKYNFIPSTAREKFYVKDSKFYLENGELIPIVHNAGRYRFLRPVKDFGYGPGKNRVNKFNIWMFRMLFSVSNFLKMK”, the “soluble on expression in E. coli” value is given as “not soluble”. “MSLTSVVFLNPGNSTETFWVSYSQFMQAAARDLGLDLRILYAERDPQNTLQQARELFQGRDKPDYLMLVNEQYVAPQILRLSQGSGIKLFIVNSPLTLDQRELIGQSRQNYSDWIGSMVGDDEEAGYRMLKELLHKLGPVPAGHGIELLAFSGLKVTPAAQLRERGLRRALAEHPQVHLRQLVYGEWNRERAYRQAQQLLKRYPKTQLVWSANDEMALGAMQAARELGRKPGTDLLFSGVNSSPEALQALIDGKLSVLEAGHFTLGGWALVALHDDALGLDARRLGGPDWQLSLFQALTPAQARQLLRLGDQVGTRVDFRGLSAQGKPDSYRYPFGLQLLLREGHHHHHH”: the “soluble on expression in E. coli” value is reported as “soluble”. Consider “MRQVDFFTLRLFLSAVEEGQIGRAALRENIAPSAATKRIQELEDVVGLRLLERTPKGVILSPAGEVLVRHIRQIFTNVDELRAELSAFSEGVRGEVSVASARSIIAPYLAHEFGAYIRDYPLVDLIVREVENAAIVQAVAQGDADIGVFAAAPALDLSGVDVMPYRQDRMVVVMSHGHRLAQRQSVTFEDLLSENLIVPAALHMALRTAADRLGREFEPKYGVTSAGVAISLAQEGLGVTIQPECLLDLKVFEHAVGVELAESWANRSIHIATARGRAAGPAANLLLKQLLDRPRALSSVSD”, for which the “soluble on expression in E. coli” value is given as “not soluble”. As for “MADANATICYLNGLSLHTINEVEKILLALPKKGDRCEVQVTKPLNGTIGRSTGDVIASKSMQIHDEPRPLSLSPPLQKSEKSSKSKKLSEYSCMSSTKEQMETVEIRNGSNASAAKKLQCKVLTDQVRVSPIVSCNGVILELDVEVTIPDREEKKKLKLEIECPDFVPARIKIGNKWKKIV”, the “soluble on expression in E. coli” value was “not soluble”.

As to “MGSDKIHHHHHHMLATYLKSLNENDRSLYNEGEDVIQGLIQSPKTLPPKYFYDDYGSELFEQICELSEYYPTRTEAWILRQYADEIAQITGNCELVELGSGSSTKTLFLLDAYQKIASHCRYIPIDVSHGILKSSVLKLQQKYPNFFVEGLIGTYEQALIKLESTFAASRMIFFLGSSLGNFNPRECDDFLRQITRTLQAGDYFLLGIDLQKPKEILEPAYNDSQGVTAAFNLNILSHLNWRFQGNFDLSLFTHQAIYNENDAQIEMYLHCQKSHEVSLEALDLQVSFAGGESILTEISRKFDLVNMQKQLETHGLKTLKTWTDPNQWFGLILCQA”, the “soluble on expression in E. coli” value is listed as “not soluble”. For “MGSDKIHHHHHHLRMSRIQARLLQAIVRPALKTNLLKHAAWRVVLKLRNEFAHAVPPVELETTFDENIRILTSLSDHIESQVFWQGFQEADEGVILLLKRFLPSDGSFIDVGANIGTFTLVAAHRAVRGQVHAFEPSAHHFARLAHNVELNDFKNVALNRKGLYDQPGEAVLFLPSQTGEMNNSGAASLYTSALEETRQVSEAVSLIRLDDYVREKSIGRVDIIKIDIEGAELKALEGARETIARFRPLVFMELDLDNLERAERSPEEVLQYWKSLNYEVSIILLTGETVPVTSPKEFGLHQNLQCRPF” the value was “not soluble”. The same measure for “MAANIQQQFGEQLLRAAQVVEEQIDQEMNKLENLEEDDLEVIRRQRMEQMKKAQKDRIEMLSHGHGKYEEVADEKEFFEATKKSDKVVCLFYLPGNFRCKIVDKHFEILARKHVGTRFIHVNAEKVHFLTTRLNIRVIPSIAIVVKQQTVDYIRGFDELGGKDEFTTETMENRLARSEVLTVEKKHTAPAKKKIIRSGVEEYDNEEDW”: “not soluble”. For “MWYHRLSHLHSRLQDLLKGGVIYPALPQPNFKSLLPLAVHWHHTASKSLTCAWQQHEDHFELKYANTVMRFDYVWLRDHCRSASCYNSKTHQRSLDTASVDLCIKPKTIRLDETTLFFTWPDGHVTKYDLNWLVKNSYEGQKQKVIQPRILWNAEIYQQAQVPSVDCQSFLETNEGLKKFLQNFLLYGIAFVENVPPTQEHTEKLAERISLIRETIYGRMWYFTSDFSRGDTAYTKLALDRHTDTTYFQEPCGIQVFHCLKHEGTGGRTLLVDGFYAAEQVLQKAPEEFELLSKVPLKHEYIEDVGECHNHMIGIGPVLNIYPWNKELYLIRLFKEKQNTVNRQWNSSLQCDIPERILTYRHFVSGTSIEHRGSLI” the value was “not soluble”; for “MDKSNGLRVILFPLPLQGCINPMIQLAKILHSRGFSITVIHTRFNAPKASNHPLFTFLQIPDGLSETETRTHDITLLLTLLNRSCESPFRECLTKLLQSADSETGEEKQRISCLIDDSGWIFTQPVAQSFNLPRLVLNTYKVSFFRDHFVLPQLRREMYLPLQDSEQGDDPVEEFPPLRKKDLLQILDQESEQLDSYSNMILETTKASSGLIFVSTCEELDQDSLSQAREDYQVPIFTIGPSHSYFPGSSSSLFTVDETCIPWLDKQEDKSVIYVSFGSISTIGEAEFMEIAWALRNSDQPFLWVVRGGSVVHGAEWIEQLHEKGKIVNWAPQQEVLKHQAIGGFLTHNGWNSTVESVFEGVPMICMPFVWDQLLNARFVSDVWMVGLHLEGRIERNVIEGMIRRLFSETEGKAIRERMEILKENVGRSVKPKGSAYRSLQHLIDYITYF”, “soluble”; for “MSSKPKYVQDQEMIPGVYWVGIVDWMVRIFHGYHTDEGSSYNSYFIDDECPTVIDSVKYPFAEEWLSRIAACCPLDKIKYVVMNHAEGDHASSLKDHYHKFTNATFVCTKKCQEHLKILYGMEKATWLIVDDKYTLKIGKRTLKFIPVPLLHWPDSTFTYCPEDKILFSNDGFGQHYATSRRWADECDVSHVMHLFKEYTANILGLFSAQMRKALEVASTVEIKYILSAHGVSWRGDAMGLAIAEYDRWSKGQHCQKKVTVVLDSMYGTTHRMALALLDGARSTGCETVLLEMTSSDITKVALHTYDSGAVAFASPTLNNTMMPSVAAALNYVRGLTLIKGKPAFAFGAFGWSNRAVPDIVAELRDGCKADVYDEKGITFKFNYTEELLEQAYNAGVDLGKRAIAYCEKNAPKQ”, “soluble”. In the case of “PSTLLKNYQDNNKMLVLALENEKSKVKEAQDIILQLRKECYYLTCQL”, the “soluble on expression in E. coli” value is reported as “soluble”. The same measure for “GSKKSRLWVDRSGTFKVDAEFIGCAKGKIHLHKANGVKIAVAADKLSNEDLAYVEKITGFSLEKFKAN”: “soluble”; for “GMLAETDEYMAGGKRPARVYRVVNGIAVLPVTGTLVHRLGGMRPFSGMTGYDGIVACLQQAMADSQVRGILLDIDSPGGQAAGAFDCADMIYRLRQQKPVWALCNDTACSAAMLLASACSRRLVTQTSRIGSIGVMMSHVSYAGHLAQAGVDITLIYAGAHKVDGNQFEALPAEVRQDMQQRIDAARRMFAEKVAMYTGLSVDAVTGTEAAVFEGQSGIEAGLADELINASD”: “not soluble”; for “MGSDKIHHHHHHWIAFAGNMNTTIDNESDELKAIDYKDLEVKEKLGEGASGEVYRAMYGGSDVALKLFRGAATSDGLPEDEIKVMQRLGPDENSVSILGSVVGAPEGQLAALLPLVPPSFTILGNPPTFDSCTRDTYPKDKTFSLRTAIEILEAIARVCAHLHSRGLSHGDLYAHNILVQIGVDGEPTRTKLSDYGAASFSSVLKPHQVALLERIEVRAFGALAEELMDRLEEADAEGVAHRLSSVIVKSMRADVASRPSFSEIHQEMVAFLKEV”: “not soluble”.
